Data set [1] concerns the target T1, PpERF17 (Prunus persica (peach), cv. …, UniProt M5W9J0 1-215).
T1 sequence: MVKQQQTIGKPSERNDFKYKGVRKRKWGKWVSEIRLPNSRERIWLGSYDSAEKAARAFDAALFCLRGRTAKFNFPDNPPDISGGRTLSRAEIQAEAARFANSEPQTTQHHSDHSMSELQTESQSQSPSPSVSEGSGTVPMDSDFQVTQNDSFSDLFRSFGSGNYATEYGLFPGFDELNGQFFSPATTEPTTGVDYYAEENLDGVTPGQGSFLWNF
The data set is described as follows: EMSA; Chemiluminescent EMSA Kit (Beyotime); buffer, salt, pH and temperature not stated. The following applies: protein: recombinant, tags: GST (N-terminal, pGEX-4T-1), label: biotin. Background: In EMSA bound probe runs differently from free probe, usually more slowly.

Data set [2] has as its target T1, PpERF17. In words: EMSA; cold probe 50x/500x competes; Chemiluminescent EMSA Kit (Beyotime); buffer, salt, pH and temperature not stated. The following applies: protein: recombinant; tags: GST (N-terminal, pGEX-4T-1); label: biotin; blunt.

B1: PpERF17-PpOPR3 mutant probe (dsDNA)
DNA 1: TAGAAACCAAAACGATTTTTTTTTTAAATAAATCCGC
DNA 2: GCGGATTTATTTAAAAAAAAAATCGTTTTGGTTTCTA
For the molecule B1, in data set [1] (blunt), the binding result is “no binding”.

B2: PpERF17-PpGAD mutant probe (dsDNA)
DNA 1: CATAAAAAAAAAAGGTTTTTTTTTGTTCCAACTTGG
DNA 2: CCAAGTTGGAACAAAAAAAAAACCTTTTTTTTTATG
Take B2: in data set [1], the binding result is listed as “no binding”.

B3: PpERF17-PpAOS probe (dsDNA)
DNA 1: ATGGTTCATGTACCCCACCGTCTTCACACTCACCTTC
DNA 2: GAAGGTGAGTGTGAAGACGGTGGGGTACATGAACCAT
On to B3, for which, in data set [2], the binding result was “binds”.

B4: PpERF17-Pp13S-LOX probe (dsDNA)
DNA 1: TCTTAAAAACGTGTGGACGGTGAGATCAACAGTACCC
DNA 2: GGGTACTGTTGATCTCACCGTCCACACGTTTTTAAGA
For B4, in data set [2], the binding result is on record as “binds”.

B5: PpERF17-PpGAD probe (dsDNA)
DNA 1: CATAAGGTCGGAAGGCACCGTCCATGTTCCAACTTGG
DNA 2: CCAAGTTGGAACATGGACGGTGCCTTCCGACCTTATG
Regarding B5, the binding result in data set [2] is “binds”.

B6: PpERF17-Pp13S-LOX mutant probe (dsDNA)
DNA 1: TCTTAAAAACGTGAAAAAAAAAAGATCAACAGTACCC
DNA 2: GGGTACTGTTGATCTTTTTTTTTTCACGTTTTTAAGA
In the case of B6, the binding result in data set [1] (blunt) is “no binding”.

B7: PpERF17-PpAOS mutant probe (dsDNA)
DNA 1: ATGGTTCATGTACCCTTTTTTTTTCACACTCACCTTC
DNA 2: GAAGGTGAGTGTGAAAAAAAAAGGGTACATGAACCAT
B7: the binding result in data set [1] (blunt) was “no binding”.

B8: PpERF17-PpOPR3 probe (dsDNA)
DNA 1: TAGAAACCAAAACGACACCGGCCATAAATAAATCCGC
DNA 2: GCGGATTTATTTATGGCCGGTGTCGTTTTGGTTTCTA
Turning to B8, in data set [2], the binding result is recorded as “binds”.

Source of the values: publication PMC11908827, “PpERF17 alleviates peach fruit postharvest chilling injury under elevated CO2 by activating jasmonic acid and γ-aminobutyric acid biosynthesis”.
